According to article PMC4654632 (Journal of molecular biology, 2012):

Test: HPLC sedimentation assay of fibril thermodynamic stability
Type: physicochemical
Details: from Cr (Ka = 1/Cr), PBS pH 7.4, 25 °C

## wild-type: wild-type amyloid-β 40-residue peptide (Aβ40), made by Fmoc solid-phase synthesis
  ΔG (free energy of association): -7.2 ± 0.2 kcal/mol
